Target: T1, RNase A (Bos taurus (assumed; commercial RNase …, UniProt P61823)
T1 construct: RNase A (ribonuclease A), about 13.7 kDa, commercial; also called ribonuclease A; source: bought: Biofroxx (1263MG050)
Experiment: SPR; BIAcore T200, CM5 chip; Asp. VHH captured on flow cell 4; RNase A injected at 0, 2, 10, 50 nM, multi-cycle kinetics; HBS-EP+ pH 7.4; 25 °C; 1:1 binding model
Conditions: both partners purified

T1 sequence (P61823 27-150): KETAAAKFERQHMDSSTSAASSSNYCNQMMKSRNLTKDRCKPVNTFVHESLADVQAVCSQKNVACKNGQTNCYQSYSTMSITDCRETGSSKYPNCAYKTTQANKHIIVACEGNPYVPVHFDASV

Kd: 1.91 nM
B1: anti-RNase A VHH expressed in pyrG auxotrophic Aspergillus oryzae (VHH)
VHH: QVQLVESGGGLVQAGGSLRLSCAASGYAYTYIYMGWFRQAPGKEREGVAAMDSGGGGTLYADSVKGRFTISRDKGKNTVYLQMDSLKPEDTATYYCAAGGYELRDRTYGQWGQGTQVTVSS
notes: DNA codon-optimized; about 13 kDa; also called Asp; VHH; anti-ribonuclease A VHH; source: pyrG(-) A. oryzae RIB40, secreted into the culture medium, purified (Ni-NTA IMAC, PD-10 desalting, Superdex 200 SEC); not shown: 8xHis, C-terminal, kept
